Results from patent WO2021228904A1 (dated 2021).

Target: stabilized prefusion SARS-CoV-2 S ectodomain (SARS-CoV-2 (Wuhan-Hu-1), UniProt P0DTC2 15-1138)
Test: SPR

Binder	Kd [nM]
SEQ ID NOs: 469/473 (HCVR/LCVR) (antibody, V domains shown) VH: QVQLVQSGAEVKKPGESLRISCKGSGYSFTSHWISWVRQMPGKGLEWMGRIDPSDSYTNYSPSFQGHVTISADKSISTAYLQWSSLKASDTAMYYCARLKVITIFGVVRDDYGMDVWGQGTTVTVSS VL: QSALTQPASVSGSPGQSITISCTGTSSDVGSYNLVSWYQQHPGKAPKLMIYDSSKRPSGVSNRFSGSKSGNTASLTISGLQAEDEADYYCCSYAGSVFGGGTKLTVL	≤ 1
SEQ ID NOs: 233/237 (HCVR/LCVR) (antibody, V domains shown) VH: EVQLVESGGGLVQPGGSLRLSCAASGFTFSSYSMNWVRQAPGKGLEWVSYISSSSSTIYYADSVKGRFTISRDNAKNSLYLQMNSLRAEDTAVYYCAREANSDFWSGYLGYFDYWGQGTLVTVSS VL: EIVMTQSPATLSLSPGERATLSCRASQSVSSYLAWYQQKPGQAPRLLIYDASNRATGIPARFSGSGSGTDFTLTISSLEPEDFAVYYCQQRSNWPQVTFGQGTRLEIK	≤ 1
COVA1-22 (antibody, V domains shown) VH: EVQLVESGAEVKKPGASVKVSCKASGYTFTSYGISWVRQAPGQGLEWMGWISAYNGYTNSAQKLQGRVTMTTDTSTSTAYMELRSLRSDDTAVYYCARDLVDTAMVQTLDDYGMDVWGQGTMVTVSS VL: not shown	≤ 1
002_P1H10 (antibody, V domains shown) VH: QVQLVETGGGLIQPGGSLRLSCAASGFTVSSNYMSWVRQAPGKGLEWVSVIYSGGSTYYADSVKGRFTISRDNSKNTLYLQMNSLRAEDTAVYYCARDLDTMGGMDVWGQGTRVTVSS VL: not shown	≤ 1
SEQ ID NOs: 445/449 (HCVR/LCVR) (antibody, V domains shown) VH: EVQLVESGPGLVKPSQTLSLTCTVSGGSISSGDYYWSWIRQPPGKGLEWIGYIYYSGSTYYNPSLKSRVTISVDTSKNQFSLKLSSVTAADTAVYYCARGVEDPVVPAAIPWCWFDPWGQGTRVTVSS VL: QSVLTQPPSVSVAPGQTARITCGGNNIGSKSVHWYQQKPGQAPVLVVYDDSDRPSGIPERFSGSNSGNTATLTISRVEAGDEADYYCQVWASSSVVFGGGTKLTVL	≤ 1
SEQ ID NOs: 573/577 (HCVR/LCVR) (antibody, V domains shown) VH: QVQLQESGPGLVKPSETLSLTCTASGGSISSSSYYWGWIRQPPGKGLEWIGSIYYSGSTYYNPSLKSRVTISVDTSKNQFSLKLSSVTAADTAVYYCARHPSGLYQLLNWGQGTLVTVSS VL: AIRMTQSPSSLSASVGDRVTITCQASQDISNYLNWYQQKPGKAPKLLIYDASNLETGVPSRFSGSGSGTDFTFTISSLQPEDIATYYCQQYDNLLSLTFGGGTKVEIK	≤ 1
002_P2H1 (antibody, V domains shown) VH: EVQLVESGGGLIQPGGSLRLSCAASGFTVSSNYMSWVRQAPGKGLEWVSVIYSGGSTYYADSVKGRFTISRDNSKNTLYLQMNSLRAEDTAVYYCASPLLLTPPDYYYYMDVWGKGTMVTVSS VL: DVVMTQSPSSLSVSVGDRVTITCRASQGIRNDLGWYQQKPGKAPKRLIYAASSLQSGVPSRFSGSGSGTEFTLTISSLQPEDFATYYCLQHNSYLWTFGQGTKLEIK	≤ 1
SEQ ID NOs: 337/341 (HCVR/LCVR) (antibody, V domains shown) VH: QVQLVQSGAEVKKPGATVKISCKVSGYTFTDYYMHWVQQAPGKGLEWMGLVDPEDGETIYAEKFQGRVTITADTSTDTAYMELSSLRSEDTAVYYCASSDSSGFVGSRGFDYWGQGTRVTVSS VL: DIQLTQSPSSLSASVGDRVTITCRASQGIRNDLGWYQQKPGKAPKRLIYAASSLQSGVPSRFSGSGSGTEFTLTISSLQPEDFATYYCLQHNSYPPLFGQGTKVEIK	≤ 1
SEQ ID NOs: 213/209 (HCVR/LCVR) (antibody, V domains shown) VH: EVQLVESGPGLVKPSETLSLTCTVSGGSISSYYWSWIRQPPGKRLEWIGYIYYSGSTNYNPSLKSRVTISVDTSKNQFSLKLNSVTAADTAAYYCARGFDYWGQGTRVTVSS VL: not shown	≤ 1
SEQ ID NOs: 429/433 (HCVR/LCVR) (antibody, V domains shown) VH: EVQLVESGGGVVQPGRSLRLSCAASGFTFSSYGMHWVRQAPGKGLEWVAVIWYDGSNKYYADSVKGRFTISRDNSKNTLYLQMDSLRAEDTAMYYCAKDKAPPCSSGWYYFDYWGQGTLVTVSS VL: not shown	≤ 1
COVA2-02 (antibody, V domains shown) VH: VQLQQESGPGLVKPSETLSLTCTVSGGSISSSSYYWGWIRQPPGKGLEWIGSIYYSGSTYYNPSLKSRVTISVDTSKNQFSLKLSSVTAADTAVYYCARRSTSRWGYYYMDVWGKGTRVTVSS VL: DIVMTQSPSSLSASVGDRVTITCRASQSISNYLNWYQQKPGKAPKLLLYAASDLQSGVPSRFSGSGSGTDFTLTISSLQPEDFATYYCQQSYSTHMSTFGQGTKVDIK	≤ 1
002_P1H2 (antibody, V domains shown) VH: EVQLVESGAEVKKPGSSVKVSCKASGGTLSSYAISWVRQAPGQGLEWMGGIIPIFGTANYAQKFQGRVTITTDESTSTAYMELSSLRSEDTAVYYCARGPRGCSSTSCYGSYFDYWGQGTLVTVSS VL: not shown	≤ 1
002_P1D6 (antibody, V domains shown) VH: EVQLLESGAEVKKPGESLKISCKGSGYSFTSYWIGWVRQMPGKGLEWMGIIYPGDSDTRYSPSFQGQVTISADKSISTAYLQWSSLKASDTAMYYCARHMRPSIAARPGYQYYMDVWGKGTRVTVSS VL: not shown	≤ 1
SEQ ID NOs: 397/401 (HCVR/LCVR) (antibody, V domains shown) VH: EVQLVQSGAEVKKPGESLRISCKGSGYSFTSYWISWVRQMPGKGLEWMGRIDPSDSYTNYSPSFQGHVTISADKSISTAYLQWSSLKASDTAMYYCARPNPAGGYDSSGWVDAFDIWGQGTRVTVSS VL: not shown	≤ 1
SEQ ID NOs: 201/205 (HCVR/LCVR) (antibody, V domains shown) VH: QLQLQESGPGLVKPSQTLSLTCTVSGGSISSGGYYWSWIRQLPGKGLEWIGYIYYSGSTYYNPSLKSRVTISVDTSKNQFSLNLSSVTAADTAVYYCARQQLDYYDSSGCFDYWGQGTLVTVSS VL: DIVMTQSPSFLSASVGDRVTITCRASQGISSYLAWYQQKPGKAPKLLIYAASTLQSGVPSRFSGSGSGTEFTLTISSLQPEDFATYYCQQLHSYPLTFGGGTKVDIK	≤ 1
SEQ ID NOs: 389/393 (HCVR/LCVR) (antibody, V domains shown) VH: EVQLVESGAEVKKPGSSVKVSCKASGGTFSSYAISWVRQAPGQGLEWMGGIIPIFGTANYAQKFQGRVTITTDESTSTAYMELSSLRSEDTAVYYCARGPRYCSSTSCYAGVYFDYWGQGTRVTVSS VL: not shown	≤ 1
COVA2-29 (antibody, V domains shown) VH: EVQLVESGGGVVQPGRSLRLSCAASGFTFSSYTMHWVRQAPGKGLEWVAVISYDGSNKYYADSVKGRFTISRDNSKNTLYLQMNSLRAEDTAVYYCASLPVVPAAIGPLPAFDIWGQGTMVTVSS VL: not shown	≤ 1
COVA1-16 (antibody, V domains shown) VH: QVQLVQSGAEVKKPGASVKVSCKASGYTFTSYYMHWVRQAPGQGLEWMGIINSSGGSTSYAQKFQGRVTMTRDTSTSTVYMELSSLRSEDTAVYYCARPPRNYYDRSGYYQRAEYFQHWGQGTLVTVSS VL: DIQLTQSPSSLSASVGDRVTITCQASQDISNYLNWYQQRPGKAPKLLIYDASNLETGVPSRFSGSGSGTDFTFTISSLQPEDIATYYCQQYDNPPLTFGGGTKLEIK	≤ 1
SEQ ID NOs: 153/157 (HCVR/LCVR) (antibody, V domains shown) VH: QVQLVESGGGLVKPGGSLRLSCAASGFTFSSYSMNWVRQAPGKGLEWVSSISSSSSYIYYADSVKGRFTISRDDAKNSLFLQMNSLRAEDTAVYYCAGDQNLYCSGDSCYYHYYGMDVWGQGTVVTVSS VL: NFMLTQPPSVSVAPGKTARITCGGNNIGSKSVHWYQQKPGQAPVLVIYYDSDRPSGIPERFSGSNSGNTATLTISRVEAGDEADYYCQVWDSSSDHWVFGGGTKLTVL	≤ 1
SEQ ID NOs: 49/53 (HCVR/LCVR) (antibody, V domains shown) VH: QVQLVESGAEVKKPGSSVKVSCKASGGTLSSYAITWVRQAPGQGLEWVGGIIPIFGTANYAQKFQGRVTITADESTSTAYMELSSLRSEDTAVYYCARVGAYDSSGYSNDYWGQGTLVTVSS VL: DIQLTQSPATLSLSPGERATLSCRASQSVSSYLAWYQQKPGQAPRLLIYDASNRATGIPARFSGSGSGTDFTLTISSLEPEDFAVYYCQQRSNWPPRVTFGGGTKVEIK	≤ 1
SEQ ID NOs: 629/633 (HCVR/LCVR) (antibody, V domains shown) VH: QVQLVESRAEVKKPGSSVKVSCKASGGTFSSYAISWVRQAPGQGLEWMGRIIPILGITNYAQKFQGRVTITADKSTSTAYMELSSLRSEDTAVYYCARDAPDYYDSSGPTYFDYWGQGTLVTVSS VL: not shown	≤ 1
SEQ ID NOs: 453/457 (HCVR/LCVR) (antibody, V domains shown) VH: EVQLVESGVEVKKPGASVKVSCKAFGYTFTGQDMHWVRQAPGQGLEWMGWINPSSAGTNYAQKFQGRVTMTRDTSISTAYMELSRLRSDDTSVYYCRKMLTIFGKVNQTMLLISGAKGQWSPSLQWGQGTMVTVSS VL: DIVMTQTPLSLSVTPGQPASISCKSGQSLLHSDGKTYLYWYLQKPGQPPQLLIYEVSNRFSGVPDRFSGSGSGTDFTLKISRVEAEDVGVYYCMQSIQLPPTFGQGTKVEIK	≤ 1
COVA2-39 (antibody, V domains shown) VH: QVQLVETGGGLIQPGGSLRLSCAASGFTVSSNYMSWVRQAPGKGLEWVSVIYTGGTTYYADSVKGRFTISRDNSKNTLYLQMNSLRAEDTAVYYCARAHVDTAMVESGAFDIWGQGTRVTVSS VL: QSALTQPASVSGSPGQSITISCTGTSSDVGSYNLVSWYQQHPGKAPKLMIYEVTKRPSGVSNRFSGSKSGNTASLTISGLQAEDEADYYCCSYAGSSTWVFGGGTKLTVL	≤ 1
COVA2-07 (antibody, V domains shown) VH: EVQLVETGGGLIQPGGSLRLSCAASGLTVSSNYMNWVRQAPGKGLEWVSVIYSGGSTYYADSVKGRFTISRDNSKNTLYLQMNSLRAEDTAVYYCAREAYGMDVWGQGTMVTVSS VL: not shown	≤ 1
SEQ ID NOs: 565/569 (HCVR/LCVR) (antibody, V domains shown) VH: EVQLLESGAEVKKPGASVKISCKASGYTFTGYYMHWVRQAPGQGLEWMGWINPNSGGTNYAQKFQGRVTMTRDTSISTAYMELSRLRSDDTAVYYCARGDGDYYDSSGYYRPTLYNWLDPWGQGTRVTVSS VL: not shown	≤ 1
SEQ ID NOs: 533/537 (HCVR/LCVR) (antibody, V domains shown) VH: EVQLVESGGGLVKPGGSLRLSCSASGFTFSNYNMDWVRQAPGKGLEWVSSISSSSSYIYLADSVKGRFTISRDNAKNSLYLQMNSLRAEDTAVYYCARVQKDIVVVPVALADYYYYGMDVWGQGTTVTVSS VL: DIVMTQSPATLSVSPGERATLSCRASQSVSSNLAWYQQKPGQAPRLLIYGASTRATGIPARFSGSGSGTEFTLTISSLQPEDFAVYYCQQCYNWPPWTFGQGTRVEFK	≤ 1
